Source: patent publication US11858993B2, “Multi-specific antibodies with affinity for human A33 antigen and DOTA metal complex and uses thereof” (Memorial Sloan Kettering Cancer Center, priority 2015, dated 2024)
“Also recorded” adds a separate entry of the source.

What was measured:
[1] = tested on: A33-positive SW1222 tumor; experiment: Biodistribution of ^177Lu-activity 2-120 h p.i. following PRIT; conditions: 2.0 MBq ^177Lu-DOTA-Bn
Procedure: Briefly, ^177Lu-activity in tumor and various normal tissues determined using a biodistribution assay following PRIT with optimum A33-C825 (0.25 mg/mouse) and dextran-clearing agent doses (25% (w/w), 62.5 μg) and 2.0 MBq (˜10 pmol) of ^177Lu-DOTA-Bn. Groups of SW1222 tumor-bearing mice (n=4 to 5) were given 250 μg of huA33-C825, followed 24 h later with 25% (w/w) (62.5 μg) dextran-clearing agent, and after an additional 4 h, 2.0 MBq (˜10 pmol) of 177Lu-DOTA-Bn. […] was sacrificed at 2, 24, and 120 h p.i. of ^177Lu-DOTA-Bn for biodistribution analysis.
All animal experiments were approved by the Institutional Animal Care and Use Committee of Memorial Sloan Kettering Cancer Center and institutional guidelines for the proper and humane use of animals in research were followed. Athymic nu/nu female mice (6-8 weeks old; Harlan Sprague Dawley) were allowed to acclimate in the vivarium for at least one week. […] All reagents were given intravenously (i.v.) via the lateral tail vein. […] In addition, huA33-C825 was trace radiolabeled with I-131 to estimate tumor uptake during PRIT. […] (Lindmo, T. et al., 1990, J. Immunol. Meth. 126(2):183-189). For PRIT with non-specific IgG-C825, an equivalent mg dose of a GD2-targeted bispecific antibody (hu3F8-C825) was used in place of huA33-C825. For ex vivo biodistribution analysis, mice were euthanized by CO2(g) asphyxiation, and tumor and selected organs were harvested, rinsed with water and allowed to air-dry, weighed and radioassayed by gamma scintillation counting (Perkin Elmer Wallac Wizard 3″). Count rates were background and decay corrected, converted to activities using a system calibration factor, normalized to the administered activity, and expressed as percent injected dose per gram (% ID/g). Differences in ^177Lu-activity concentration in tumor and various tissues were analyzed by Student's unpaired t test when appropriate. […]

[2] = tested on: kidney, bone marrow, liver, and spleen; experiment: Toxicity: weight, appearance and anatomic pathology after PRIT; type: in vivo; conditions: PRIT-treated SW1222 mice, dual-cycle; out to 140 days where stated
Procedure: For dual-cycle PRIT given at 10 and 17 days post tumor inoculation, there is marked response at all dose levels with complete responses observed in a dose dependent manner. […] Toxicity was determined by monitoring weight and overall appearance at least three times per week, as well as histopathologic assessment of liver, kidney, spleen and bone marrow by MSKCC Lab of Comparative Pathology.
For 3/3 mice, the kidney, bone marrow, and liver were normal.

SW1222 tumor = experiment: ^177Lu-DOTA-Bn dose titration, tumor uptake and saturation during PRIT; type: in vivo, mice
Procedure: FIGS. 4A-4D show exemplary tumor uptake of ^177Lu-DOTA-Bn at 24 hours post injection as a function of radioactivity in the treatment of mice bearing a human colon cancer xenograft (SW1222); (FIG. 4A) uptake of amounts of ^177Lu-DOTA-Bn in various tissues. (FIG. 4B) Uptake of amounts of ^177Lu-DOTA-Bn in SW1222 tumors; (FIG. 4C) activity of ^177Lu-DOTA-Bn in SW1222 tumors and kidneys 24 hours post injection per amount of injected ^177Lu-DOTA-Bn; (FIG. 4D) pmoles of ^177Lu-DOTA-Bn binding in the tumor 24 hours post injection per amount of injected ^177Lu-DOTA-Bn. Saturation was achieved after approximately 40 MBq of injected activity.
As described herein, the present inventors provide an improved multi-step PRIT method in immunocompromised mice bearing s.c. A33-positive human colorectal tumors (SW1222) using a bispecific antibody termed huA33-C825. Such methodology includes i.v. injection of various doses of huA33-C825 and a dextran-based CA, followed with injection of ^177Lu-DOTA-Bn theranostic (i.e., diagnostic and therapeutic) hapten for simultaneous scintigraphic imaging and radioimmunotherapy. The present invention specifically describes biodistribution studies that provide optimum huA33-C825 and CA doses, followed with a series of additional biodistribution studies to determine the tumor uptake as a function of ^177Lu-DOTA-Bn doses (˜2.0-111.0 MBq) to serve as a practical and dosimetric guide for PRIT studies. Also, as described herein, tumors and kidneys were excised at 24 hours post injection of ^177Lu-DOTA-Bn at three different dose levels (11.1, 55.0, and 111.0 MBq) to examine ex vivo the ^177Lu-activity microdistribution via autoradiography, as well as correlate the ^177Lu-activity with the xenograft and tissue morphology via hematoxylin and eosin staining. Further, the estimated absolute SW1222 tumor uptake of huA33-C825 24 h p.i. of 0.25 mg/mouse based on radioactive tracer studies with ^131I-huA33-C825 was ˜90 pmol/g of tumor.

[3] = tested on: A33-positive SW1222 tumor; experiment: Estimation of absorbed doses and therapeutic index for PRIT; type: in vivo, mice; conditions: PRIT 0.25 mg huA33-C825, 62.5 μg CA, ^177Lu-DOTA-Bn; 2-120 h p.i. data
Source text: Exemplary estimates of absorbed doses for tumor and select normal tissue in female athymic mice carrying s.c. A33 positive-colorectal cancer tumors for PRIT including the optimum huA33-C825 and dextran-clearing agent doses are set forth in Table 6.

Question: With “huA33-C825: bispecific antibody: humanized A33 IgG1 with murine C825 anti-DOTA-Bn scFv linked to the light chain C-terminus” as the substance, how does the “Tumor-to-tissue ratio, Kidneys” value ([1]; 2 hr p.i. (n = 5)) read?
Answer: 8.1 ± 1.7

Question: What about the “Tumor-to-tissue ratio, Kidneys” value ([1]; 24 hr p.i. (n = 4)) of the same substance?
Answer: 18.3 ± 13.4

Question: What about the “Tumor-to-tissue ratio, Kidneys” value ([1]; 120 hr p.i. (n = 5)) of the same substance?
Answer: 14.8 ± 4.9

Question: And the “toxicity (clinical, histologic)” value [2]?
Answer: no clinical or histologic evidence of radiation induced toxicities; also recorded: no toxicity was observed; also recorded: no detectable toxicity

Question: What about the “estimated maximum occupancy (fraction)” value (SW1222 tumor; 11 pmol ^177Lu-DOTA-Bn/180 pmol) of the same substance?
Answer: 0.061

Question: What about the peak tumor uptake (SW1222 tumor; PRIT+55.5 ^177Lu-DOTA-Bn per cycle) of the same substance?
Answer: 3 % ID/g

Question: What about the “injected activity of ^177Lu-DOTA-Bn after which saturation of tumor binding was achieved” value (SW1222 tumor; SW1222 tumors, 24 hours post injection) of the same substance?
Answer: approximately 40 MBq

Question: What about the “^177Lu-DOTA-Bn bound in tumor used for maximum occupancy” value (SW1222 tumor; mouse, in vivo) of the same substance?
Answer: 11 pmol

Question: What about the “maximum ^177Lu-DOTA-Bn binding capacity” value (SW1222 tumor; two ^177Lu-DOTA-Bn per huA33-C825 molecule) of the same substance?
Answer: 180 pmol/g tumor

Question: What about the “estimated absorbed dose, Blood” value [3] of the same substance?
Answer: 0.9 cGy/MBq

Question: And the “estimated absorbed dose, Bone” value [3]?
Answer: 0.6 cGy/MBq

Question: What about the “estimated absorbed dose, Heart” value [3] of the same substance?
Answer: 1.4 cGy/MBq

Question: And the “estimated absorbed dose, Kidneys” value [3]?
Answer: 5.3 cGy/MBq

Question: And the “estimated absorbed dose, Large Intestine” value [3]?
Answer: 0.8 cGy/MBq

Question: And the “estimated absorbed dose, Liver” value [3]?
Answer: 6.3 cGy/MBq

Question: And the “estimated absorbed dose, Lung” value [3]?
Answer: 1.8 cGy/MBq

Question: What about the “estimated absorbed dose, Muscle” value [3] of the same substance?
Answer: 0.3 cGy/MBq

Question: What about the “estimated absorbed dose, Small Intestine” value [3] of the same substance?
Answer: 0.5 cGy/MBq

Question: What about the “estimated absorbed dose, Spleen” value [3] of the same substance?
Answer: 6.6 cGy/MBq

Question: And the “estimated absorbed dose, Stomach” value [3]?
Answer: 0.6 cGy/MBq

Question: What about the “estimated absorbed dose, Tumor” value [3] of the same substance?
Answer: 65.8 cGy/MBq
